# Laboratory results: PMC12125552
# How the values were obtained:
# [1] = biological target: DdMyo7 long heavy meromyosin (lnHMM), FLAG-tagged (Dictyostelium); test: co-IP; lnHMM (FLAG) precipitated with anti-Flag beads from a MgATP-released, myosin-enriched cytoskeletal fraction of talA null cells; washed in Flag buffer (25 mM Hepes pH 7.4, 300 mM NaCl, 10 mM MgCl2 and 5 mM EGTA, or 2 mM CaCl2); eluted with Flag peptide; gel stained with Coomassie or Sypro Ruby, densitometry normalised to molecular weights; lower band identified by mass spectrometry
# Chain of DdMyo7 long heavy meromyosin (lnHMM), FLAG-tagged (Dictyostelium) (Q9U1M8 686-725): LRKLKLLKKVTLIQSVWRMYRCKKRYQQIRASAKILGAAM
# [2] = biological target: DdMyo7 short heavy meromyosin forced-dimer GFP (shHMM-FD-GFP) (Dictyostelium | not stated)
# [3] = biological target: DdMyo7 short heavy meromyosin forced-dimer GFP (shHMM-FD-GFP) (Dictyostelium | not stated); test: co-IP; as a2, but the resin washed in IP wash buffer + 2 mM CaCl2 (+Ca2+); immunoblot signal normalised for gel load and heavy chain abundance
stoichiometry N [1] [CalB per HC],"velocity of shHMM-FD on F-actin (TIRF motility assay) with 100 μM free Ca2+, against 40.7 nm/s without Ca2+ [2] [nm/s]",reduction of immunoblot signal with Ca2+ [3] [%],Substance
2.01,23.6,,Dictyostelium CaM-like protein CalB (natural protein)
,,75.1,FLAG-CalB (natural protein)
